According to the Immune Epitope Database (IEDB):

How the values were obtained:
Experiment in all cases: IEDB peptide-MHC binding, purified MHC/competitive/radioactivity; filed as Kd, often an IC50 or EC50 that approximates it; ≥ and ≤ were set here for values at or beyond the usual limits of such assays
HLA-A*03:01 = biological target: HLA-A*03:01
HLA-A*11:01 = biological target: HLA-A*11:01
HLA-A*31:01 = biological target: HLA-A*31:01
HLA-A*33:01 = biological target: HLA-A*33:01
HLA-A*68:01 = biological target: HLA-A*68:01
[1] = source organism: Vaccinia virus WR
[2] = source organism: SARS coronavirus Tor2
[3] = source organism: Dengue virus 1 Brazil/97-11/1997
[4] = source organism: Dengue virus 3 Martinique/1243/1999
[5] = source organism: Mammarenavirus machupoense
[6] = source organism: Dengue virus 4 Philippines/H241/1956

## IFMRDWNSKY
HLA-A*03:01; [1]
  Kd: ≥ 33300 nM
HLA-A*11:01; [1]
  Kd: ≥ 20500 nM
HLA-A*31:01; [1]
  Kd: 2480 nM
HLA-A*33:01; [1]
  Kd: 13700 nM
HLA-A*68:01; [1]
  Kd: 10900 nM

## KLLQTLVLK
HLA-A*03:01; [2]
  Kd: 863 nM
HLA-A*11:01; [2]
  Kd: 1070 nM
HLA-A*31:01; [2]
  Kd: 2480 nM
HLA-A*33:01; [2]
  Kd: ≥ 44900 nM
HLA-A*68:01; [2]
  Kd: ≥ 39400 nM

## MLNIMNRRKR
HLA-A*31:01; [3]
  Kd: ≥ 60800 nM

## VALYRRIQRR
HLA-A*03:01; [1]
  Kd: ≥ 70100 nM
HLA-A*11:01; [1]
  Kd: ≥ 48200 nM
HLA-A*31:01; [1]
  Kd: 562 nM
HLA-A*33:01; [1]
  Kd: 1340 nM
HLA-A*68:01; [1]
  Kd: ≥ 30500 nM

## LFSTSAADIK
HLA-A*03:01; [1]
  Kd: 19600 nM
HLA-A*11:01; [1]
  Kd: 4790 nM
HLA-A*31:01; [1]
  Kd: ≥ 70000 nM
HLA-A*33:01; [1]
  Kd: ≥ 70000 nM
HLA-A*68:01; [1]
  Kd: 57.8 nM

## LITLILSNK
HLA-A*03:01; [1]
  Kd: 20.9 nM
HLA-A*11:01; [1]
  Kd: 19 nM
HLA-A*31:01; [1]
  Kd: 2080 nM
HLA-A*33:01; [1]
  Kd: 6720 nM
HLA-A*68:01; [1]
  Kd: 32.7 nM

## KSCICYGSY
HLA-A*03:01; [1]
  Kd: 437 nM
HLA-A*11:01; [1]
  Kd: 6.88 nM
HLA-A*31:01; [1]
  Kd: 418 nM
HLA-A*33:01; [1]
  Kd: 364 nM
HLA-A*68:01; [1]
  Kd: ≥ 29700 nM

## LLTDTIESAK
HLA-A*03:01; [1]
  Kd: 190 nM
HLA-A*11:01; [1]
  Kd: 84.7 nM
HLA-A*31:01; [1]
  Kd: 10100 nM
HLA-A*33:01; [1]
  Kd: 2340 nM
HLA-A*68:01; [1]
  Kd: 667 nM

## FFLRKLTSR
HLA-A*31:01; [4]
  Kd: 47.7 nM
HLA-A*33:01; [4]
  Kd: 46.6 nM

## SSVSVLMKEH
HLA-A*03:01; [5]
  Kd: 17700 nM
HLA-A*11:01; [5]
  Kd: ≥ 31000 nM
HLA-A*31:01; [5]
  Kd: 11700 nM
HLA-A*33:01; [5]
  Kd: ≥ 70000 nM
HLA-A*68:01; [5]
  Kd: 8860 nM

## LLMHLVSLY
HLA-A*03:01; [1]
  Kd: 2.67 nM
HLA-A*11:01; [1]
  Kd: 7.11 nM
HLA-A*33:01; [1]
  Kd: ≥ 52500 nM
HLA-A*68:01; [1]
  Kd: 9.95 nM

## FTTSLSLHK
HLA-A*03:01; [2]
  Kd: 1350 nM
HLA-A*11:01; [2]
  Kd: 181 nM
HLA-A*31:01; [2]
  Kd: 2860 nM
HLA-A*33:01; [2]
  Kd: 1130 nM
HLA-A*68:01; [2]
  Kd: 271 nM

## NTKSDIDVIK
HLA-A*03:01; [1]
  Kd: 8260 nM
HLA-A*11:01; [1]
  Kd: 68.4 nM
HLA-A*31:01; [1]
  Kd: 4030 nM
HLA-A*33:01; [1]
  Kd: 970 nM
HLA-A*68:01; [1]
  Kd: 0.547 nM

## VMNIERQDY
HLA-A*03:01; [1]
  Kd: ≥ 61100 nM
HLA-A*11:01; [1]
  Kd: 6110 nM
HLA-A*31:01; [1]
  Kd: 3880 nM
HLA-A*33:01; [1]
  Kd: 747 nM
HLA-A*68:01; [1]
  Kd: 53.2 nM

## KTYIDVNEEY
HLA-A*03:01; [1]
  Kd: 1800 nM
HLA-A*11:01; [1]
  Kd: 777 nM
HLA-A*31:01; [1]
  Kd: 1880 nM
HLA-A*33:01; [1]
  Kd: ≥ 70000 nM
HLA-A*68:01; [1]
  Kd: 10500 nM

## PIGMQFDKVY
HLA-A*03:01; [1]
  Kd: ≥ 70100 nM
HLA-A*11:01; [1]
  Kd: 1230 nM
HLA-A*31:01; [1]
  Kd: ≥ 70000 nM
HLA-A*33:01; [1]
  Kd: ≥ 70000 nM
HLA-A*68:01; [1]
  Kd: 13000 nM

## KMLTFDVFR
HLA-A*03:01; [1]
  Kd: 82.9 nM
HLA-A*11:01; [1]
  Kd: 2.96 nM
HLA-A*31:01; [1]
  Kd: 3.97 nM
HLA-A*33:01; [1]
  Kd: 365 nM
HLA-A*68:01; [1]
  Kd: 77.2 nM

## YSMCTGKFK
HLA-A*11:01; source organism: Dengue virus 2 Jamaica/1409/1983
  Kd: 550 nM

## KSQAKKPEVR
HLA-A*03:01; [1]
  Kd: ≥ 22000 nM
HLA-A*11:01; [1]
  Kd: 10800 nM
HLA-A*31:01; [1]
  Kd: 299 nM
HLA-A*33:01; [1]
  Kd: ≥ 37200 nM
HLA-A*68:01; [1]
  Kd: ≥ 70200 nM

## SFYVYANGGR
HLA-A*03:01; [2]
  Kd: 1650 nM
HLA-A*11:01; [2]
  Kd: 1170 nM
HLA-A*31:01; [2]
  Kd: 89.2 nM
HLA-A*33:01; [2]
  Kd: 182 nM
HLA-A*68:01; [2]
  Kd: 789 nM

## SMRYQSLIPR
HLA-A*03:01; [1]
  Kd: 1.35 nM
HLA-A*11:01; [1]
  Kd: 1.01 nM
HLA-A*31:01; [1]
  Kd: 0.363 nM
HLA-A*33:01; [1]
  Kd: 0.614 nM
HLA-A*68:01; [1]
  Kd: 20.2 nM

## RQFHQKLLK
HLA-A*03:01; [2]
  Kd: 12.6 nM
HLA-A*11:01; [2]
  Kd: 13.3 nM
HLA-A*31:01; [2]
  Kd: 8.5 nM
HLA-A*33:01; [2]
  Kd: ≥ 77700 nM
HLA-A*68:01; [2]
  Kd: ≥ 39500 nM

## RIDGAHLTK
HLA-A*03:01; [2]
  Kd: 26.7 nM
HLA-A*11:01; [2]
  Kd: 11.9 nM
HLA-A*31:01; [2]
  Kd: 1820 nM
HLA-A*33:01; [2]
  Kd: ≥ 77700 nM
HLA-A*68:01; [2]
  Kd: ≥ 25700 nM

## SIFKLTYQNK
HLA-A*03:01; [3]
  Kd: 15.2 nM
HLA-A*11:01; [3]
  Kd: 65.9 nM

## LVTRKCPQK
HLA-A*03:01; [1]
  Kd: 63 nM
HLA-A*11:01; [1]
  Kd: 17.3 nM
HLA-A*31:01; [1]
  Kd: 1320 nM
HLA-A*33:01; [1]
  Kd: 5110 nM
HLA-A*68:01; [1]
  Kd: 19.3 nM

## DTIVSRSSR
HLA-A*03:01; [1]
  Kd: ≥ 78000 nM
HLA-A*11:01; [1]
  Kd: ≥ 77900 nM
HLA-A*31:01; [1]
  Kd: 1410 nM
HLA-A*33:01; [1]
  Kd: 5.71 nM
HLA-A*68:01; [1]
  Kd: 5.79 nM

## LIDTTSRELK
HLA-A*03:01; [1]
  Kd: 38.9 nM
HLA-A*11:01; [1]
  Kd: 162 nM
HLA-A*31:01; [1]
  Kd: 147 nM
HLA-A*33:01; [1]
  Kd: 716 nM
HLA-A*68:01; [1]
  Kd: 432 nM

## DMQKFTILEY
HLA-A*03:01; [1]
  Kd: ≥ 53500 nM
HLA-A*11:01; [1]
  Kd: 3530 nM
HLA-A*31:01; [1]
  Kd: ≥ 70000 nM
HLA-A*33:01; [1]
  Kd: ≥ 70000 nM
HLA-A*68:01; [1]
  Kd: ≥ 24500 nM

## STMPLVMAWR
HLA-A*11:01; [6]
  Kd: 14.8 nM
HLA-A*31:01; [6]
  Kd: 1.16 nM
HLA-A*33:01; [6]
  Kd: 2.89 nM
HLA-A*68:01; [6]
  Kd: 15.2 nM

## TVEAGRTLR
HLA-A*68:01; source organism: Dengue virus 2 Peru/IQT2913/1996
  Kd: 13 nM
